According to paper PMC6901930:

Molecular target: Major capsid protein (MCP), Trx fusion (Singapore grouper iridovirus (SGIV-Gx), UniProt Q5YFJ3 1-463)
Experiment: EMSA
Conditions: protein: recombinant; tags: Trx-His (pET-32a), 68 kDa

B1: Q5c (ssDNA)
DNA: TATTCGGGTTATTGCTCCTCTTTATTGTCACCTGGATGTATGATCGTGTAG
binding result: binds
